Measurements reported in publication PMC5910400.

Biological target: CXCL8 (human)

Substance: P1243:G4S:P1156 two-warhead evasin (from UniProt A0A0C9S461;V5HBW0)
- mean IC50 (three biological replicates) of inhibition of primary human granulocyte migration induced by the EC80 dose of CXCL8: 3.8e-08 M

Substance: P1156:G4S:P1243 two-warhead evasin (from UniProt V5HBW0;A0A0C9S461)
- mean IC50 (three biological replicates) of inhibition of primary human granulocyte migration induced by the EC80 dose of CXCL8: 7.5e-09 M
